From patent publication US20180030119A1

Experiments:
[1] = target: F protein on intact RSV particles (Example 11, strain not stated) (RSV, strain not stated); experiment: competition ELISA: RSV particles pre-incubated with control IgG at 20 ug/mL, plates coated with palivizumab; this is the reference set to 100 %
[2] = target: F protein on intact RSV particles (Example 11, strain not stated) (RSV, strain not stated); experiment: competition ELISA: RSV particles pre-incubated with control IgG at 20 ug/mL, plates coated with AR201; this is the reference set to 100 %
[3] = target: F protein of RSV reference strain RSV-B (ATCC VR 1580), on virus (RSV-B (ATCC VR 1580)) (UniProt P13843); experiment: cell-based or functional assay
Sequence of F protein of RSV reference strain RSV-B (ATCC VR 1580), on virus (RSV-B (ATCC VR 1580)) (P13843 26-574): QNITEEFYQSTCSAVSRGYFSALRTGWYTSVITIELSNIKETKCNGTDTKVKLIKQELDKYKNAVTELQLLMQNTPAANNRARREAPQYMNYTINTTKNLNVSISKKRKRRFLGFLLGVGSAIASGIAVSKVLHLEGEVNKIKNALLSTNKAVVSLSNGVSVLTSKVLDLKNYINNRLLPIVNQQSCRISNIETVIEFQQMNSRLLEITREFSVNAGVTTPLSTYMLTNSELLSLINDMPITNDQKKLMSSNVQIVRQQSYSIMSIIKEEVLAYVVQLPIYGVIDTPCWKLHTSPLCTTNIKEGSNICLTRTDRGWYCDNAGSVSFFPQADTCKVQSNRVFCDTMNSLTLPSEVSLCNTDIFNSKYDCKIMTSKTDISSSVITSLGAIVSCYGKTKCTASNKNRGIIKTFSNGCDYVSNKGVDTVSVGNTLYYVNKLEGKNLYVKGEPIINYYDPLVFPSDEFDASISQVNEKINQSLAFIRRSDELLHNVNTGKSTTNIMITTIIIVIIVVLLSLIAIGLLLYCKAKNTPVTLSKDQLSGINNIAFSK

[4] = target: F protein of RSV reference strain RSV-A Long (ATCC VR-26), on virus (RSV-A Long (ATCC VR-26)) (UniProt P12568); experiment: cell-based or functional assay
Sequence of F protein of RSV reference strain RSV-A Long (ATCC VR-26), on virus (RSV-A Long (ATCC VR-26)) (P12568 26-574): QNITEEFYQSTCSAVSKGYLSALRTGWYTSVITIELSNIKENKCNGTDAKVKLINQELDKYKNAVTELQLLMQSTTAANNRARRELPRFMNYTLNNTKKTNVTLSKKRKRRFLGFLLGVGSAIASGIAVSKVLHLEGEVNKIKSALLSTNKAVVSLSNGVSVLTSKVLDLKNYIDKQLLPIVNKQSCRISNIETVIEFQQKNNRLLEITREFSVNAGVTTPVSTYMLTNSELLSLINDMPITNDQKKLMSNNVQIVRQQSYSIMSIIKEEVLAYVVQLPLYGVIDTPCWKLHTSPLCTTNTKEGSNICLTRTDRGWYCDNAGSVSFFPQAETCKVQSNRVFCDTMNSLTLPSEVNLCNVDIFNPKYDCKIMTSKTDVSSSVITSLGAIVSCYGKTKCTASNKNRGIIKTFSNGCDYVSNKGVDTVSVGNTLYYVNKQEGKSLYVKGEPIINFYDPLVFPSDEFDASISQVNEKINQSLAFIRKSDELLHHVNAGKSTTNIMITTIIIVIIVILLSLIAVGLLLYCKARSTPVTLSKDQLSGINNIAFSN

[5] = target: F protein on intact RSV particles (Example 11, strain not stated) (RSV, strain not stated); experiment: competition ELISA: RSV particles pre-incubated with inhibiting mAb at 20 ug/mL, then added to plates coated with palivizumab (competitor, self)
[6] = target: F protein on intact RSV particles (Example 11, strain not stated) (RSV, strain not stated); experiment: competition ELISA: RSV particles pre-incubated with inhibiting mAb at 20 ug/mL, then added to plates coated with AR201 (competitor)

Row | Substance | binding of RSV to the coated mAb, % of binding with control IgG [1] | binding of RSV to the coated mAb, % of binding with control IgG [2] | Estimated half-maximal effective antibody concentration (ng/mL), plaque neutralisation on Vero cells [3] | Estimated half-maximal effective antibody concentration (ng/mL), plaque neutralisation on Vero cells [4] | binding of RSV to the coated mAb, % of binding with control IgG [5] | binding of RSV to the coated mAb, % of binding with control IgG [6]
1 | unrelated fully human monoclonal IgG1 antibody (control) | 100% | 100% | > 1000 ng/mL | > 1000 ng/mL | – | –
2 | palivizumab (antibody) | – | – | 200 ng/mL | 100 ng/mL | 35.3% | 29.2%
